Results: PMC11077089, “Molecular basis of A. thaliana KEOPS complex in biosynthesizing tRNA t6A”

Legend:
Assay in all cases: MST; MST: 20 mM PBS pH 7.5, 300 mM NaCl, 0.05% Tween 20, 25 C, 50 nM RNA; EMSA: 20 mM Tris-HCl pH 7.5, 300 mM NaCl, 5 mM b-mercaptoethanol, 20% glycerol, agarose gel in Tris-glycine pH 8.0 (8.5 for FAM-RNA), 4 C
[1] = biological target: T1, KAE1;BUD32 N58R;CGI121;PCC1 (Arabidopsis thaliana;Arabidopsis …, UniProt O49653;Q94K14;Q6NMZ4;Q8GWD7 1-353;1-226;1-172;1-96, |N58R||); details: protein: recombinant;recombinant;recombinant;recombinant; tags: none (6His on partner PCC1);;6His (C-term);6His (C-term); chain copies: 2;2;2;2; label: 5' 6-FAM; tRNA cloverleaf
T1 sequence 1: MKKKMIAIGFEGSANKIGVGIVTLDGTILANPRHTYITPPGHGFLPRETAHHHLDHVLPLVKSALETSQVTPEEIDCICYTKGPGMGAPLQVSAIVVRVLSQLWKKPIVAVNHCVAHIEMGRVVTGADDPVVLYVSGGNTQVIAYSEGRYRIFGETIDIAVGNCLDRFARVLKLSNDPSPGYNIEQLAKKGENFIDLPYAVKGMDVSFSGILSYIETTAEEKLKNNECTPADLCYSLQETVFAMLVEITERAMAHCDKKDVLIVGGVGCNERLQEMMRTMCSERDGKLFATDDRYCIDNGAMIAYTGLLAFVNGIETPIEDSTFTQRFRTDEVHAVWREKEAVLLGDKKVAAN
T1 sequence 2: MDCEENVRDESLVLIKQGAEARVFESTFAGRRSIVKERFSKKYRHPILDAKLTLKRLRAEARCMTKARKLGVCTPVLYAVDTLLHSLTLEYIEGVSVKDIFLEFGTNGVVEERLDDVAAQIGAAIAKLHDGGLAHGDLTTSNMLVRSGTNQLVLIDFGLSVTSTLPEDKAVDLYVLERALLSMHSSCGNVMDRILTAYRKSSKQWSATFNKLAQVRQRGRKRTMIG
T1 sequence 3: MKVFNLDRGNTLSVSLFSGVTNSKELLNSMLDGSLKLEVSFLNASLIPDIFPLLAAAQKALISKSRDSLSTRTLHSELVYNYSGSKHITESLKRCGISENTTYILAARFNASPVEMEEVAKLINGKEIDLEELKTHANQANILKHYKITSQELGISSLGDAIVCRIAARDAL
T1 sequence 4: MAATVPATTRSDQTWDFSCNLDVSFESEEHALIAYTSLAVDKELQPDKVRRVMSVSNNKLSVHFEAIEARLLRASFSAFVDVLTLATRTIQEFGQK

BUD32;CGI121 = biological target: T2, BUD32;CGI121 (Arabidopsis thaliana;Arabidopsis …, UniProt Q94K14;Q6NMZ4 1-226;1-172, |); details: protein: recombinant;recombinant; tags: none (6His on partner CGI121);6His (C-term); copies: 1;1; label: 5' 6-FAM; tRNA cloverleaf
T2 sequence 1: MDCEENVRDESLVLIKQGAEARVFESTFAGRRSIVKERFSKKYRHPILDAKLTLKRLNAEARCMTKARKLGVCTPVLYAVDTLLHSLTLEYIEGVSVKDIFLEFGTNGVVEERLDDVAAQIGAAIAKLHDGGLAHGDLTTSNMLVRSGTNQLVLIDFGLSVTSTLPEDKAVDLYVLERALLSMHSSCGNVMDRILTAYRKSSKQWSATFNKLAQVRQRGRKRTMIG
T2 sequence 2: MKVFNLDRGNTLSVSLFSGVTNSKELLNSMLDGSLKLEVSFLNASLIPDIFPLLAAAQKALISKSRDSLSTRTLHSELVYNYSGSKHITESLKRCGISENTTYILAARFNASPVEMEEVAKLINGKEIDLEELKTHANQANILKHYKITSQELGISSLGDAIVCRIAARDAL

[2] = biological target: T3, KAE1;BUD32 K51E;CGI121;PCC1 (Arabidopsis thaliana;Arabidopsis …, UniProt O49653;Q94K14;Q6NMZ4;Q8GWD7 1-353;1-226;1-172;1-96, |K51E||); details: protein: recombinant;recombinant;recombinant;recombinant; tags: none (6His on partner PCC1);;6His (C-term);6His (C-term); chain copies: 2;2;2;2; label: 5' 6-FAM; tRNA cloverleaf
T3 sequence 1: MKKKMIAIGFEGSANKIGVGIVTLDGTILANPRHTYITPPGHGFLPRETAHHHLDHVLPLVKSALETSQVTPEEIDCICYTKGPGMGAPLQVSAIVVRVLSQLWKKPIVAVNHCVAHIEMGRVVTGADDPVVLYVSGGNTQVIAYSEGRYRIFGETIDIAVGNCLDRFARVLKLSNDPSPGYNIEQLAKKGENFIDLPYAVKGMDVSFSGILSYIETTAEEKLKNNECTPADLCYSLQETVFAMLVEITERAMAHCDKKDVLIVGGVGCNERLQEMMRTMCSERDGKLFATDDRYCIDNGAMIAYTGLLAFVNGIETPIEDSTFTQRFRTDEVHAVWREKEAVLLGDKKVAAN
T3 sequence 2: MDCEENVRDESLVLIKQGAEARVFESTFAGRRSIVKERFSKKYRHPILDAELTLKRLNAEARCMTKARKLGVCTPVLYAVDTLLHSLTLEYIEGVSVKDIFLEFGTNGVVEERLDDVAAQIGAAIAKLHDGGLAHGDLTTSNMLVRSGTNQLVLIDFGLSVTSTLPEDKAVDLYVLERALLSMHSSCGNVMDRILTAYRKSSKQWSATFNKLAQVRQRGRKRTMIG
T3 sequence 3: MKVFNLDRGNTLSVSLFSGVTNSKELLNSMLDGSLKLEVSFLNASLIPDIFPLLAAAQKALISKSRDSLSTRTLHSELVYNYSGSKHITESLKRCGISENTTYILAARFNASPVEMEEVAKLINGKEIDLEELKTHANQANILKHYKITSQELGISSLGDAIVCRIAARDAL
T3 sequence 4: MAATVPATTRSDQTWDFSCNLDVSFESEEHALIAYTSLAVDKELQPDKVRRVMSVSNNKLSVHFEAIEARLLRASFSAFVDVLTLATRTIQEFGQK

[3] = biological target: T4, KAE1;BUD32 T162R;CGI121;PCC1 (Arabidopsis thaliana;Arabidopsis …, UniProt O49653;Q94K14;Q6NMZ4;Q8GWD7 1-353;1-226;1-172;1-96, |T162R||); details: protein: recombinant;recombinant;recombinant;recombinant; tags: none (6His on partner PCC1);;6His (C-term);6His (C-term); chain copies: 2;2;2;2; label: 5' 6-FAM; tRNA cloverleaf
T4 sequence 1: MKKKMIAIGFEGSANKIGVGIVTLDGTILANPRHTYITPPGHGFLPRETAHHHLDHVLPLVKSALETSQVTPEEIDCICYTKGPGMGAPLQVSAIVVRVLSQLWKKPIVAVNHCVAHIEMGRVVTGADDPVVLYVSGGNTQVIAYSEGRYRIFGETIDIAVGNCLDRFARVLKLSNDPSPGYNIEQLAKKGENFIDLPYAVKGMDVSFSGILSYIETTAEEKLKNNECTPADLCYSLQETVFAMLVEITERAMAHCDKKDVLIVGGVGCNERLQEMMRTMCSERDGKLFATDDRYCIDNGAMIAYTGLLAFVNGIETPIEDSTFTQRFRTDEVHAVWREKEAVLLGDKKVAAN
T4 sequence 2: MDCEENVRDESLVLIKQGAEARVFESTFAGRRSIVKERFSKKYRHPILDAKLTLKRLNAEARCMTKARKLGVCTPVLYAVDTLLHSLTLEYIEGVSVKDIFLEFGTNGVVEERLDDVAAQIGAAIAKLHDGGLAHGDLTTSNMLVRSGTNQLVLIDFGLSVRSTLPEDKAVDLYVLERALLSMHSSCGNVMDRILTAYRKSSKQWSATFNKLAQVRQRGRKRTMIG
T4 sequence 3: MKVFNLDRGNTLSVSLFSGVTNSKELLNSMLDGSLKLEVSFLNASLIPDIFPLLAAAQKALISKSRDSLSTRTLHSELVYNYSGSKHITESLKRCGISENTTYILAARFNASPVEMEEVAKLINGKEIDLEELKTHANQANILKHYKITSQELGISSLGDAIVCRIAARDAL
T4 sequence 4: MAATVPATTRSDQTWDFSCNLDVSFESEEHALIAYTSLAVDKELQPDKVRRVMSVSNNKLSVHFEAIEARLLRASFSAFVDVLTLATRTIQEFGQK

B1: 5'-6FAM-tRNAArgCCU (structured_RNA)
RNA: GCGCCUGUAGCUCAGUGGAUAGAGCGUCUGUUUCCUAAGCAGAAGGUCGUAGGUUCGACCCCUACCUGGCGCGCCA
[1]
  Kd: 9.81 ± 2.73 µM
BUD32;CGI121
  Kd: 61.6 ± 15 µM
[2]
  Kd: 29.8 ± 10.7 µM
[3]
  Kd: 10.5 ± 2.99 µM
